Source: patent publication US20240383967A1 (UNIVERSITY OF SOUTHERN CALIFORNIA, published 2024)

B1: Her-HC-CTSSpp IgG (antibody)
heavy: EVQLVESGGGLVQPGGSLRLSCAASGFNIKDTYIHWVRQAPGKGLEWVARIYPTNGYTRYADSVKGRFTISADTSKNTAYLQMNSLRAEDTAVYYCSRGGSGAKLAALKAKLAALKCGGGGSIEGRQLHKDPTLDHHWHLWKKTYGKQYKEKNEEAVRRLIWEKNLKFVMLHNLEHSMGMHSYDLGMNHLGDMTSEEVMSLMSSLRVPSQWQRNITYKSNPNRGGGGSCELAALEAELAALEAGGSGDYWGQGTLVTVSSASTKGPSVFPLAPSSKSTSGGTAALGCLVKDYFPEPVTVSWNSGALTSGVHTFPAVLQSSGLYSLSSVVTVPSSSLGTQTYICNVNHKPSNTKVDKKVEPKSCDKTHTCPPCPAPPVAGPSVFLFPPKPKDTLMISRTPEVTCVVVDVSHEDPEVKFNWYVDGVEVHNAKTKPREEQYNSTYRVVSVLTVLHQDWLNGKEYKCKVSNKGLPSSIEKTISKAKGQPREPQVYTLPPSRDELTKNQVSLTCLVKGFYPSDIAVEWESNGQPENNYKTTPPVLDSDGSFFLYSKLTVDKSRWQQGNVFSCSVMHEALHNHYTQKSLSLSPGK
light: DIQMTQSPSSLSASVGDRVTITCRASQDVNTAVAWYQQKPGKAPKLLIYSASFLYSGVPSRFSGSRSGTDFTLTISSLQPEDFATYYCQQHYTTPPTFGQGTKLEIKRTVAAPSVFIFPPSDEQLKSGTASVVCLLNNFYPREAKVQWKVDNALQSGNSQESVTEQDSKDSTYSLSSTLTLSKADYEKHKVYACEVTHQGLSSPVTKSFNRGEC
notes: Full-length IgG expressed in Expi293F cells and purified on protein G. The propeptide of proCTSS is grafted into CDR3H of the anti-HER2 antibody Herceptin
B2: Syn-LC-CTSSpp Fab (Fab)
light: QLHKDPTLDHHWHLWKKTYGKQYKEKNEEAVRRLIWEKNLKFVMLHNLEHSMGMHSYDLGMNHLGDMTSEEVMSLMSSLRVPSQWQRNITYKSNPNRGGGGSDIQMTQSPSTLSASVGDRVTITCKCQLSVGYMHWYQQKPGKAPKLLIYDTSKLASGVPSRFSGSGSGTEFTLTISSLQPDDFATYYCFQGSGYPFTFGGGTKLEIKRTVAAPSVFIFPPSDEQLKSGTASVVCLLNNFYPREAKVQWKVDNALQSGNSQESVTEQDSKDSTYSLSSTLTLSKADYEKHKVYACEVTHQGLSSPVTKSFNRGEC
heavy: QVTLRESGPALVKPTQTLTLTCTFSGFSLSTSGMSVGWIRQPPGKALEWLADIWWDDKKDYNPSLKSRLTISKDTSKNQVVLKVTNMDPADTATYYCARSMITNWYFDVWGAGTTVTVSSASTKGPSVFPLAPSSKSTSGGTAALGCLVKDYFPEPVTVSWNSGALTSGVHTFPAVLQSSGLYSLSSVVTVPSSSLGTQTYICNVNHKPSNTKVDKKVEPKSCDKTHT

Legend:
[1] = molecular target: T1, Recombinant human CTSL (human, UniProt P07711 114-333); test: fluorogenic protease activity assay (Z-FR-AMC), initial rates fitted to the competitive inhibition equation
T1 construct: Bought; also called cathepsin L
T1 sequence (P07711 114-333): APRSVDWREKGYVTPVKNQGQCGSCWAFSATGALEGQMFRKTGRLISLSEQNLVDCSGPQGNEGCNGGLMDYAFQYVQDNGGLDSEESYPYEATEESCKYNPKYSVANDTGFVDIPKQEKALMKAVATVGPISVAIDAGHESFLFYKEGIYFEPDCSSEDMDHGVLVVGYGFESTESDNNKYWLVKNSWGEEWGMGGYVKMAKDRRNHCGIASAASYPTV
Description: (§1) The inhibition activity of Her-HC-CTSSpp IgG was then examined with human CTSS through fluorescence-based activity assays using a fluorogenic peptide substrate Z-VVR-AMC (FIG. 5). […] CTSS and CTSL belong to the same subfamily of cathepsins. And the propeptide of proCTSS is a known inhibitor of CTSL (28,29). Therefore, the activity of Her-HC-CTSSpp IgG in inhibiting human CTSL was evaluated with a fluorogenic peptide substrate Z-FR-AMC (FIG. 5). […] To further study inhibition specificity of Her-HC-CTSSpp IgG, fluorescence-based activity assays for human CTSB and bovine trypsin were carried out in the absence or presence of Her-HC-CTSSpp IgG.
(§2) Next, inhibition potency and specificity of the designed Syn-LC-CTSSpp Fab antibody were analyzed by fluorescence-based proteolytic activity assays. […] Likewise, Syn-LC-CTSSpp Fab functions as a weaker antibody inhibitor against human CTSL.

[2] = molecular target: T2, Recombinant human CTSS (human, UniProt P25774 115-331); test: fluorogenic protease activity assay (Z-VVR-AMC), initial rates fitted to the competitive inhibition equation
T2 construct: Bought from R&D Systems (1183-CY-010); also called cathepsin S
Description: as §1, §2

[3] = molecular target: T1, Recombinant human CTSL; test: ratio of Ki values from fluorogenic protease activity assays

Binder	Ki [1]	Ki [2]	fold decrease of potency for CTSL in comparison to CTSS [3]
B1	49.3 nM	6.03 nM	–
B2	24.5 nM	2.12 nM	~12 fold
